Experimental data: patent publication US20250114463A1, “LIVER-TARGETED DRUG AND USE THEREOF” (HANMI PHARM. CO., LTD., priority 2021, published 2025)
Changes are numbered by the printed parent chain. Bridges are numbered along the chain shown (N, C = ends). Where no end group is shown, it is not given here. [ ]: non-standard residue; d: D form. Aib = CC(C)(N)C(=O)O

T1: human GIP receptor (human, UniProt P48546 22-466)
T1 sequence (looked up): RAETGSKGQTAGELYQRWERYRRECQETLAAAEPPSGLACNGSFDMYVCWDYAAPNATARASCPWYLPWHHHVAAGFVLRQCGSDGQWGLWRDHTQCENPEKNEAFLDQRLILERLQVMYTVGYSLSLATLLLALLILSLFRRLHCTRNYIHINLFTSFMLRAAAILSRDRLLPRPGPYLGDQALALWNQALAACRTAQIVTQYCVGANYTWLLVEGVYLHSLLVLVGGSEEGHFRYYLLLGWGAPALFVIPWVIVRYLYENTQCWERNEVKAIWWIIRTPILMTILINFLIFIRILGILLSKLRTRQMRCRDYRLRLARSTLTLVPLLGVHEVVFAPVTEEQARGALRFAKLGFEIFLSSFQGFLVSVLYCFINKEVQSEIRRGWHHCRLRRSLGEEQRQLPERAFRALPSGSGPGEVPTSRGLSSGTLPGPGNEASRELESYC

B1: triple agonist of SEQ ID NO: 1 (peptide)
peptide: HXQGTFTSDVSSYLDGQAAKEFIAWLVKGC
HELM: PEPTIDE1{H.[Aib].Q.G.T.F.T.S.D.V.S.S.Y.L.D.G.Q.A.A.K.E.F.I.A.W.L.V.K.G.C.[am]}$$$$V2.0; N-terminus assumed
SMILES: CC[C@H](C)[C@H](NC(=O)[C@H](Cc1ccccc1)NC(=O)[C@H](CCC(=O)O)NC(=O)[C@H](CCCCN)NC(=O)[C@H](C)NC(=O)[C@H](C)NC(=O)[C@H](CCC(N)=O)NC(=O)CNC(=O)[C@H](CC(=O)O)NC(=O)[C@H](CC(C)C)NC(=O)[C@H](Cc1ccc(O)cc1)NC(=O)[C@H](CO)NC(=O)[C@H](CO)NC(=O)[C@@H](NC(=O)[C@H](CC(=O)O)NC(=O)[C@H](CO)NC(=O)[C@@H](NC(=O)[C@H](Cc1ccccc1)NC(=O)[C@@H](NC(=O)CNC(=O)[C@H](CCC(N)=O)NC(=O)C(C)(C)NC(=O)[C@@H](N)Cc1c[nH]cn1)[C@@H](C)O)[C@@H](C)O)C(C)C)C(=O)N[C@@H](C)C(=O)N[C@@H](Cc1c[nH]c2ccccc12)C(=O)N[C@@H](CC(C)C)C(=O)N[C@H](C(=O)N[C@@H](CCCCN)C(=O)NCC(=O)N[C@@H](CS)C(N)=O)C(C)C
B2: triple agonist of SEQ ID NO: 4 (peptide)
peptide: B1 peptide with D15L, A18Q, A19Q
HELM: PEPTIDE1{H.[Aib].Q.G.T.F.T.S.D.V.S.S.Y.L.L.G.Q.Q.Q.K.E.F.I.A.W.L.V.K.G.C.[am]}$$$$V2.0; N-terminus assumed
SMILES: CC[C@H](C)[C@H](NC(=O)[C@H](Cc1ccccc1)NC(=O)[C@H](CCC(=O)O)NC(=O)[C@H](CCCCN)NC(=O)[C@H](CCC(N)=O)NC(=O)[C@H](CCC(N)=O)NC(=O)[C@H](CCC(N)=O)NC(=O)CNC(=O)[C@H](CC(C)C)NC(=O)[C@H](CC(C)C)NC(=O)[C@H](Cc1ccc(O)cc1)NC(=O)[C@H](CO)NC(=O)[C@H](CO)NC(=O)[C@@H](NC(=O)[C@H](CC(=O)O)NC(=O)[C@H](CO)NC(=O)[C@@H](NC(=O)[C@H](Cc1ccccc1)NC(=O)[C@@H](NC(=O)CNC(=O)[C@H](CCC(N)=O)NC(=O)C(C)(C)NC(=O)[C@@H](N)Cc1c[nH]cn1)[C@@H](C)O)[C@@H](C)O)C(C)C)C(=O)N[C@@H](C)C(=O)N[C@@H](Cc1c[nH]c2ccccc12)C(=O)N[C@@H](CC(C)C)C(=O)N[C@H](C(=O)N[C@@H](CCCCN)C(=O)NCC(=O)N[C@@H](CS)C(N)=O)C(C)C
B3: triple agonist of SEQ ID NO: 40 (peptide)
peptide: HXQGTFTSDKSKYLDERACQDFVQWLLDGGPSSGAPPPS
HELM: PEPTIDE1{H.[Aib].Q.G.T.F.T.S.D.K.S.K.Y.L.D.E.R.A.C.Q.D.F.V.Q.W.L.L.D.G.G.P.S.S.G.A.P.P.P.S.[am]}$$$$V2.0; N-terminus assumed
SMILES: CC(C)C[C@H](NC(=O)[C@H](CC(C)C)NC(=O)[C@H](Cc1c[nH]c2ccccc12)NC(=O)[C@H](CCC(N)=O)NC(=O)[C@@H](NC(=O)[C@H](Cc1ccccc1)NC(=O)[C@H](CC(=O)O)NC(=O)[C@H](CCC(N)=O)NC(=O)[C@H](CS)NC(=O)[C@H](C)NC(=O)[C@H](CCCNC(=N)N)NC(=O)[C@H](CCC(=O)O)NC(=O)[C@H](CC(=O)O)NC(=O)[C@H](CC(C)C)NC(=O)[C@H](Cc1ccc(O)cc1)NC(=O)[C@H](CCCCN)NC(=O)[C@H](CO)NC(=O)[C@H](CCCCN)NC(=O)[C@H](CC(=O)O)NC(=O)[C@H](CO)NC(=O)[C@@H](NC(=O)[C@H](Cc1ccccc1)NC(=O)[C@@H](NC(=O)CNC(=O)[C@H](CCC(N)=O)NC(=O)C(C)(C)NC(=O)[C@@H](N)Cc1c[nH]cn1)[C@@H](C)O)[C@@H](C)O)C(C)C)C(=O)N[C@@H](CC(=O)O)C(=O)NCC(=O)NCC(=O)N1CCC[C@H]1C(=O)N[C@@H](CO)C(=O)N[C@@H](CO)C(=O)NCC(=O)N[C@@H](C)C(=O)N1CCC[C@H]1C(=O)N1CCC[C@H]1C(=O)N1CCC[C@H]1C(=O)N[C@@H](CO)C(N)=O
B4: triple agonist of SEQ ID NO: 39 (peptide)
peptide: HXQGTFTSDYSKYLDGQHAQCFVAWLLAGGGPSSGAPPPS
HELM: PEPTIDE1{H.[Aib].Q.G.T.F.T.S.D.Y.S.K.Y.L.D.G.Q.H.A.Q.C.F.V.A.W.L.L.A.G.G.G.P.S.S.G.A.P.P.P.S.[am]}$$$$V2.0; N-terminus assumed
SMILES: CC(C)C[C@H](NC(=O)[C@H](CC(C)C)NC(=O)[C@H](Cc1c[nH]c2ccccc12)NC(=O)[C@H](C)NC(=O)[C@@H](NC(=O)[C@H](Cc1ccccc1)NC(=O)[C@H](CS)NC(=O)[C@H](CCC(N)=O)NC(=O)[C@H](C)NC(=O)[C@H](Cc1c[nH]cn1)NC(=O)[C@H](CCC(N)=O)NC(=O)CNC(=O)[C@H](CC(=O)O)NC(=O)[C@H](CC(C)C)NC(=O)[C@H](Cc1ccc(O)cc1)NC(=O)[C@H](CCCCN)NC(=O)[C@H](CO)NC(=O)[C@H](Cc1ccc(O)cc1)NC(=O)[C@H](CC(=O)O)NC(=O)[C@H](CO)NC(=O)[C@@H](NC(=O)[C@H](Cc1ccccc1)NC(=O)[C@@H](NC(=O)CNC(=O)[C@H](CCC(N)=O)NC(=O)C(C)(C)NC(=O)[C@@H](N)Cc1c[nH]cn1)[C@@H](C)O)[C@@H](C)O)C(C)C)C(=O)N[C@@H](C)C(=O)NCC(=O)NCC(=O)NCC(=O)N1CCC[C@H]1C(=O)N[C@@H](CO)C(=O)N[C@@H](CO)C(=O)NCC(=O)N[C@@H](C)C(=O)N1CCC[C@H]1C(=O)N1CCC[C@H]1C(=O)N1CCC[C@H]1C(=O)N[C@@H](CO)C(N)=O
B5: triple agonist of SEQ ID NO: 38 (peptide)
peptide: XXQGTFTSDKSSYLDERAAQDFVQWLLDGGPSSGAPPPSS
HELM: PEPTIDE1{[O=C(Cc1c[nH]cn1)[*:2]].[Aib].Q.G.T.F.T.S.D.K.S.S.Y.L.D.E.R.A.A.Q.D.F.V.Q.W.L.L.D.G.G.P.S.S.G.A.P.P.P.S.S.[am]}$$$$V2.0
SMILES: CC(C)C[C@H](NC(=O)[C@H](CC(C)C)NC(=O)[C@H](Cc1c[nH]c2ccccc12)NC(=O)[C@H](CCC(N)=O)NC(=O)[C@@H](NC(=O)[C@H](Cc1ccccc1)NC(=O)[C@H](CC(=O)O)NC(=O)[C@H](CCC(N)=O)NC(=O)[C@H](C)NC(=O)[C@H](C)NC(=O)[C@H](CCCNC(=N)N)NC(=O)[C@H](CCC(=O)O)NC(=O)[C@H](CC(=O)O)NC(=O)[C@H](CC(C)C)NC(=O)[C@H](Cc1ccc(O)cc1)NC(=O)[C@H](CO)NC(=O)[C@H](CO)NC(=O)[C@H](CCCCN)NC(=O)[C@H](CC(=O)O)NC(=O)[C@H](CO)NC(=O)[C@@H](NC(=O)[C@H](Cc1ccccc1)NC(=O)[C@@H](NC(=O)CNC(=O)[C@H](CCC(N)=O)NC(=O)C(C)(C)NC(=O)Cc1c[nH]cn1)[C@@H](C)O)[C@@H](C)O)C(C)C)C(=O)N[C@@H](CC(=O)O)C(=O)NCC(=O)NCC(=O)N1CCC[C@H]1C(=O)N[C@@H](CO)C(=O)N[C@@H](CO)C(=O)NCC(=O)N[C@@H](C)C(=O)N1CCC[C@H]1C(=O)N1CCC[C@H]1C(=O)N1CCC[C@H]1C(=O)N[C@@H](CO)C(=O)N[C@@H](CO)C(N)=O

Each binder was assayed against human GCG receptor (human, UniProt P47871 26-477) (assay: cell-based or functional assay).
human GCG receptor, sequence (P47871 26-477): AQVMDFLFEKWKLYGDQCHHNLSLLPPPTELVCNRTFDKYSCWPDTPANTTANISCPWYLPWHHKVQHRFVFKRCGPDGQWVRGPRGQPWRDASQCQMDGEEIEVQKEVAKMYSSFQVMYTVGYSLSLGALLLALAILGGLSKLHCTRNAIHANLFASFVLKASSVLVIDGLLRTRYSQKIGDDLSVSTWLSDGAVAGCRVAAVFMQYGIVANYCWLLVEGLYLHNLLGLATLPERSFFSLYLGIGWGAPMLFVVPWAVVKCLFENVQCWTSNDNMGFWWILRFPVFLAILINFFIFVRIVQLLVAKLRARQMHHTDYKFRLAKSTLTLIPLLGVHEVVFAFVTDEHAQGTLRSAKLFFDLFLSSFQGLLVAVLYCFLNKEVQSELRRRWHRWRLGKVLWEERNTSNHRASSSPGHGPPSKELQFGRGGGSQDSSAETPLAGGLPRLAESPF

| Binder | in vitro Activity Compared to Native Peptide (%), vs Glucagon [%] |
| --- | --- |
| B1 | < 0.1 |
| H[Aib]QGTFTSDYSIAMDEIHQKDFVNWLLNTKC (bridge 16-20; not fully specified (C-terminus)) [triple agonist of SEQ ID NO: 35] | < 0.1 |
| H[Aib]QGTFTSDYSKYLCEKRQKEFVQWLLNGGPSSGAPPPSG (bridge 16-20; not fully specified (C-terminus)) [triple agonist of SEQ ID NO: 36] | 0.39 |
| B2 | < 0.1 |
| B3 | < 0.1 |
| B4 | 0.53 |
| H[Aib]QGTFTSDYSKYLDECRQKEFVQWLLNGGPSSGAPPPSG (bridge 16-20; not fully specified (C-terminus)) [triple agonist of SEQ ID NO: 37] | 6.21 |
| H[Aib]QGTFTSDYSKYLDEKRQKEFVNWLLAQKC (bridge 16-20; not fully specified (C-terminus)) [triple agonist of SEQ ID NO: 34] | 0.92 |

Each binder was assayed against T1, human GIP receptor (assay: cell-based or functional assay).

| Binder | in vitro Activity Compared to Native Peptide (%), vs GIP [%] |
| --- | --- |
| B1 | < 0.1 |
| H[Aib]QGTFTSDYSIAMDEIHQKDFVNWLLNTKC (bridge 16-20; not fully specified (C-terminus)) [triple agonist of SEQ ID NO: 35] | 1.3 |
| H[Aib]QGTFTSDYSKYLCEKRQKEFVQWLLNGGPSSGAPPPSG (bridge 16-20; not fully specified (C-terminus)) [triple agonist of SEQ ID NO: 36] | 0.2 |
| B2 | < 0.1 |
| B3 | < 0.1 |
| B4 | < 0.1 |
| H[Aib]QGTFTSDYSKYLDECRQKEFVQWLLNGGPSSGAPPPSG (bridge 16-20; not fully specified (C-terminus)) [triple agonist of SEQ ID NO: 37] | 2.2 |
| H[Aib]QGTFTSDYSKYLDEKRQKEFVNWLLAQKC (bridge 16-20; not fully specified (C-terminus)) [triple agonist of SEQ ID NO: 34] | 0.6 |

Each binder was assayed against human GLP-1 receptor (human, UniProt P43220 24-463) (assay: cell-based or functional assay).

| Binder | in vitro Activity Compared to Native Peptide (%), vs GLP-1 [%] |
| --- | --- |
| B1 | 3.2 |
| H[Aib]QGTFTSDYSIAMDEIHQKDFVNWLLNTKC (bridge 16-20; not fully specified (C-terminus)) [triple agonist of SEQ ID NO: 35] | 7.5 |
| H[Aib]QGTFTSDYSKYLCEKRQKEFVQWLLNGGPSSGAPPPSG (bridge 16-20; not fully specified (C-terminus)) [triple agonist of SEQ ID NO: 36] | 37.4 |
| B5 | 2.3 |
| B2 | 8.5 |
| B3 | 75.2 |
| B4 | 13.9 |
| H[Aib]QGTFTSDYSKYLDECRQKEFVQWLLNGGPSSGAPPPSG (bridge 16-20; not fully specified (C-terminus)) [triple agonist of SEQ ID NO: 37] | 236 |
| H[Aib]QGTFTSDYSKYLDEKRQKEFVNWLLAQKC (bridge 16-20; not fully specified (C-terminus)) [triple agonist of SEQ ID NO: 34] | 19.1 |
